# Assay results taken from US20130177528A1, “COMPOSITIONS AND METHODS FOR INHIBITING VIRAL INFECTION” (WESTERN UNIVERSITY OF HEALTH SCIENCES, priority 2011, published 2013).
# Legend:
# [1] = tested on: HSV-1 strains F, G, and MP; experiment: Infection of nectin-1 CHO Igβ cells by clinical HSV-1 strains, virus pre-incubated (Example 4); format: cell-based, herpes simplex virus type-1; conditions: MP at 25 pfu/cell pre-incubated 90 min
# Protocol: In this experiment different clinical strains of HSV-1 (F, G, and MP strains of HSV-1 [37] at 25 pfu/cell) were either pre-incubated with 1×PBS (control) or with CN at the concentrations indicated in FIG. 8, panel A for 90 min at room temperature. After 90 min of incubation the two pools of viruses were incubated with Nectin-1 receptor expressing CHO Igβ cells that express β-galactosidase upon viral entry as described. The viral infection blocking was measured by ONPG assay (FIG. 8, panel A). Similar experiment was conducted using Lac Z encoded HSV-2 (333 gJ-reporter virus). HSV-2 is a genital herpes virus. […] Each value shown is the mean of three or more determinations (±SD).
# CMV Ad169 = experiment: CMV plaque assay in RPE cells (Example 5); format: cell-based, Cytomegalovirus; conditions: virus pre-incubated with 1 mg/ml for 120 min, MOI 0.01, 3 days
# Protocol: Viral plaque assay. Confluent layers of RPE cells in glass bottom dishes were infected with CMV Ad169 strain in the presence and absence of CN at 0.01 PFU per cell for 2 hrs. This was followed by extensive but gentle washing three times with DMEM media followed by feeding cells with DMEM media. The cells were then incubated at 37° C. for thee days. Cells were then fixed using fixative buffer after 3 days for 30-45 min. The cells were washed three times with 1X PBS before RPE cells stained for Giemsa satin for additional 45 minutes. This was followed by 10 times washing with 1 X PBS to remove excess stain. The number of plaques formed were then visualized and quantified as indicated. In another protocol, confluent layers of HeLa cells (approximately 10^6) in six-well dishes were infected with HSV-1 (804) strain at 0.01 PFU/celI in presence and absence of CN for 2 h at 37° C. After removal of inoculum, monolayers were overlaid with DMEM comaining 2.5% heat-inactivated calf serum and incubated at 37° C. At 24 h, the cells were fixed by using fixative buffer (2% formaldehyde and 0.2% glutaradehyde) at room temperature for 20 min, followed by Giemsa staining for 45 min. The cells were again washed 5× in PBS and the numbers of plaques were counted. The images were taken by using Nikon D-Eclipse-C1 microscope (Nikon Instruments Inc., Melville, N.Y., USA).
# A wild type strain of CMV Ad169 was used. The virus was again either pre-incubated with 1×PBS (control) or with CN at 1 mg/ml for 120 min at room temperature. After 120 min of incubation the two pools of viruses were incubated on target retinal pigment epithelial (RPE) cells at MOI (multiplicity of infection; MOI) of 0.01 for additional 2 hrs at 37° C. This was followed by washing to remove unbound viruses and feeding cells with fresh DMEM media. The plates were kept for 3 days before the plaque formation was visually observed (upper panels) and quantified (lower panel) after fixing cells with buffer (FIG. 9). […] Based on visual evidence, the plaque formation was quantified in each group and was scored (lower panel).
# HSV-1 (804) strain = experiment: HSV-1 plaque assay in HeLa cells (Example 11); format: cell-based, herpes simplex virus type-1; conditions: 10 μM, 0.01 PFU/cell, 24 h post-infection
# Protocol: (§1) (A) In this experiment nectin-1 Chinese hamster ovary (CHO) Ig8 cells that express β-galactosidase upon viral entry were pre-treated with 10 μM contortrostatin (CN; indicated as treated [Tr]) or mock treated (indicated as untreated [Un]) with phosphate saline buffer for 90 min at room temperature followed by infection using clinical isolates of herpes simplex virus type-1 (HSV-1; F,G, and MP at 25 pfu/cell) for 6 h. The viral entry blocking was measured by o-nitro-phenyl-β-o-galactopyranoside (ONPG) assay as previously described. Error bars represent SD. (B) Confluent monolayers of HeLa cells were infected with HSV-1 (804) strain at 0.01 PFU/cell in presence (panel i) and absence (panel ii) of CN for 2 h at 37° C. Viral replication in HeLa cells were visualized 24 h post-infection for plaques. a=significant differences from corresponding mock-treated controls (P<0.05, t-test).
# Viral plaque assay. Confluent layers of RPE cells in glass bottom dishes were infected with CMV Ad169 strain in the presence and absence of CN at 0.01 PFU per cell for 2 hrs. This was followed by extensive but gentle washing three times with DMEM media followed by feeding cells with DMEM media. The cells were then incubated at 37° C. for thee days. […] The number of plaques formed were then visualized and quantified as indicated. […] The cells were again washed 5× in PBS and the numbers of plaques were counted. […]
# [2] = tested on: HSV-1 strains F, G and MP; experiment: Entry of clinical HSV-1 strains into nectin-1 CHO Ig8 cells, cells pre-incubated with CN (Example 10); format: cell-based, herpes simplex virus type-1; conditions: nectin-1 CHO Ig8 cells pre-incubated with 10 μM, MP at 25 pfu/cell, 6 h
# Protocol: as §1
# The next question was to evaluate the broader significance of CN as an anti-HSV agent. Therefore the ability of CN to block viral entry in different clinical virulent strains of HSV-1 (F, G and MP) was tested. Here, nectin-1 expressing CHO Ig8 cells that express β-galactosidase upon viral entry were used. The cells were preincubated with CN at 10 μM and then infected with clinical isolates of HSV-1.
molecule,measurement,setting,value
contortrostatin (protein) DAPANPCCDAATCKLTTGSQCADGLCCDQCKFMKEGTVCRRARGDDLDDYCNGISAGCPRNPFHA,HSV-1 infection blocking activity across viral strains (ONPG assay),[1],not viral-strain specific
same,CMV cytopathic effect (CPE),CMV Ad169,significantly lower cytopathic effect
same,CMV plaque formation,CMV Ad169,significantly reduced the plaque formation
same,size of CMV plaques,CMV Ad169,small compared to untreated CMV virions
same,HSV-1 plaque formation,HSV-1 (804) strain,blocked the plaque formation
same,entry of clinical HSV-1 strains (ONPG assay),[2],blocked the entry of different strains of HSV-1
